{
  "source": "the supplement of paper PMC10567573",
  "parents": {"B1": {"name": "FAM50A (parent)", "chain": "KKREKQREQMEQMKQRIAEENIMK"}},
  "data": [
    {"variants_of": "B1", "assay": "protein stability index of a GFP-peptide fusion (GPS, HEK-293T) (PSI 1-6); higher = more stable", "conditions": "c terminus: a fixed tail appended", "values": [
      {"variant": "KKREKQRVQMEQMKQRIAEENIMK", "protein stability index": 4.37},
      {"variant": "KKREKQRCQMEQMKQRIAEENIMK", "protein stability index": 4.15},
      {"variant": "KKREKQRLQMEQMKQRIAEENIMK", "protein stability index": 4.57},
      {"variant": "KKREKQRNQMEQMKQRIAEENIMK", "protein stability index": 4.44},
      {"variant": "KKREKQRQQMEQMKQRIAEENIMK", "protein stability index": 4.82},
      {"variant": "KKREKQRPQMEQMKQRIAEENIMK", "protein stability index": 4.89},
      {"variant": "KKREKQRKQMEQMKQRIAEENIMK", "protein stability index": 4.48},
      {"variant": "KKREKQRMQMEQMKQRIAEENIMK", "protein stability index": 4.58},
      {"variant": "KKREKQRRQMEQMKQRIAEENIMK", "protein stability index": 4.71},
      {"variant": "KKREKQREQMEKMKQRIAEENIMK", "protein stability index": 4.57},
      {"variant": "KKREKQREQMELMKQRIAEENIMK", "protein stability index": 4.55},
      {"variant": "KKREKQREQMEDMKQRIAEENIMK", "protein stability index": 5.02},
      {"variant": "KKREKQREQMEHMKQRIAEENIMK", "protein stability index": 4.58},
      {"variant": "KKREKQREQMEGMKQRIAEENIMK", "protein stability index": 4.66},
      {"variant": "KKREKQREQMECMKQRIAEENIMK", "protein stability index": 5.05},
      {"variant": "KKREKQREQMEIMKQRIAEENIMK", "protein stability index": 4.63},
      {"variant": "KKREKQREQMEEMKQRIAEENIMK", "protein stability index": 5.28},
      {"variant": "KKREKQREQMEAMKQRIAEENIMK", "protein stability index": 4.44},
      {"variant": "KKREKQREQMEFMKQRIAEENIMK", "protein stability index": 3.71},
      {"variant": "KKRQKQREQMEQMKQRIAEENIMK", "protein stability index": 4.79},
      {"variant": "KKRAKQREQMEQMKQRIAEENIMK", "protein stability index": 5.04},
      {"variant": "KKRHKQREQMEQMKQRIAEENIMK", "protein stability index": 4.38},
      {"variant": "KKRCKQREQMEQMKQRIAEENIMK", "protein stability index": 4.42},
      {"variant": "KKRGKQREQMEQMKQRIAEENIMK", "protein stability index": 4.71},
      {"variant": "KKRSKQREQMEQMKQRIAEENIMK", "protein stability index": 4.47},
      {"variant": "KKRTKQREQMEQMKQRIAEENIMK", "protein stability index": 4.09},
      {"variant": "KKRDKQREQMEQMKQRIAEENIMK", "protein stability index": 5.21},
      {"variant": "KKRVKQREQMEQMKQRIAEENIMK", "protein stability index": 4.49},
      {"variant": "KKRWKQREQMEQMKQRIAEENIMK", "protein stability index": 3.96},
      {"variant": "KKRLKQREQMEQMKQRIAEENIMK", "protein stability index": 4.21},
      {"variant": "KKRRKQREQMEQMKQRIAEENIMK", "protein stability index": 4.32},
      {"variant": "KKRPKQREQMEQMKQRIAEENIMK", "protein stability index": 4.42},
      {"variant": "KKRFKQREQMEQMKQRIAEENIMK", "protein stability index": 4.39},
      {"variant": "KKRKKQREQMEQMKQRIAEENIMK", "protein stability index": 4.28},
      {"variant": "KKRIKQREQMEQMKQRIAEENIMK", "protein stability index": 4.53},
      {"variant": "KKRYKQREQMEQMKQRIAEENIMK", "protein stability index": 4.27},
      {"variant": "KKRMKQREQMEQMKQRIAEENIMK", "protein stability index": 4.5},
      {"variant": "KKRNKQREQMEQMKQRIAEENIMK", "protein stability index": 4.37},
      {"variant": "KKREKQYEQMEQMKQRIAEENIMK", "protein stability index": 4.76},
      {"variant": "KKREKQNEQMEQMKQRIAEENIMK", "protein stability index": 4.93},
      {"variant": "KKREKQLEQMEQMKQRIAEENIMK", "protein stability index": 4.95},
      {"variant": "KKREKQQEQMEQMKQRIAEENIMK", "protein stability index": 5.25},
      {"variant": "KKREKQWEQMEQMKQRIAEENIMK", "protein stability index": 4.13},
      {"variant": "KKREKQGEQMEQMKQRIAEENIMK", "protein stability index": 5.21},
      {"variant": "KKREKQVEQMEQMKQRIAEENIMK", "protein stability index": 4.98},
      {"variant": "KKREKQAEQMEQMKQRIAEENIMK", "protein stability index": 4.91},
      {"variant": "KKREKQEEQMEQMKQRIAEENIMK", "protein stability index": 5.81},
      {"variant": "KKREKQTEQMEQMKQRIAEENIMK", "protein stability index": 4.84},
      {"variant": "KKREKQMEQMEQMKQRIAEENIMK", "protein stability index": 4.52},
      {"variant": "KKREKQKEQMEQMKQRIAEENIMK", "protein stability index": 4.81},
      {"variant": "KKREKQDEQMEQMKQRIAEENIMK", "protein stability index": 5.39},
      {"variant": "KKREKQCEQMEQMKQRIAEENIMK", "protein stability index": 4.71},
      {"variant": "KKREKQIEQMEQMKQRIAEENIMK", "protein stability index": 4.96},
      {"variant": "KKREKQFEQMEQMKQRIAEENIMK", "protein stability index": 4.52},
      {"variant": "KKREKQPEQMEQMKQRIAEENIMK", "protein stability index": 4.7},
      {"variant": "KKREKQHEQMEQMKQRIAEENIMK", "protein stability index": 5.08},
      {"variant": "KKREKQSEQMEQMKQRIAEENIMK", "protein stability index": 5.51},
      {"variant": "KKREKTREQMEQMKQRIAEENIMK", "protein stability index": 4.9},
      {"variant": "KKREKKREQMEQMKQRIAEENIMK", "protein stability index": 4.67},
      {"variant": "KKREKGREQMEQMKQRIAEENIMK", "protein stability index": 4.62},
      {"variant": "KKREKMREQMEQMKQRIAEENIMK", "protein stability index": 4.62},
      {"variant": "KKREKCREQMEQMKQRIAEENIMK", "protein stability index": 4.17},
      {"variant": "KKREKYREQMEQMKQRIAEENIMK", "protein stability index": 4.14},
      {"variant": "KKREKNREQMEQMKQRIAEENIMK", "protein stability index": 5.3},
      {"variant": "KKREKHREQMEQMKQRIAEENIMK", "protein stability index": 4.7},
      {"variant": "KKREKFREQMEQMKQRIAEENIMK", "protein stability index": 4.13},
      {"variant": "KKREKVREQMEQMKQRIAEENIMK", "protein stability index": 4.49},
      {"variant": "KKREKSREQMEQMKQRIAEENIMK", "protein stability index": 4.96},
      {"variant": "KKREKAREQMEQMKQRIAEENIMK", "protein stability index": 4.48},
      {"variant": "KKREKDREQMEQMKQRIAEENIMK", "protein stability index": 5.06},
      {"variant": "KKREKPREQMEQMKQRIAEENIMK", "protein stability index": 4.57},
      {"variant": "KKREKWREQMEQMKQRIAEENIMK", "protein stability index": 3.96},
      {"variant": "KKREKLREQMEQMKQRIAEENIMK", "protein stability index": 4.13},
      {"variant": "KKREKIREQMEQMKQRIAEENIMK", "protein stability index": 4.67},
      {"variant": "KKREKEREQMEQMKQRIAEENIMK", "protein stability index": 4.81},
      {"variant": "KKREKQREQFEQMKQRIAEENIMK", "protein stability index": 4.15},
      {"variant": "KKREKQREQGEQMKQRIAEENIMK", "protein stability index": 5.19},
      {"variant": "KKREKQREQREQMKQRIAEENIMK", "protein stability index": 5.14},
      {"variant": "KKREKQREQEEQMKQRIAEENIMK", "protein stability index": 5.14},
      {"variant": "KKREKQREQSEQMKQRIAEENIMK", "protein stability index": 4.89},
      {"variant": "KKREKQREQNEQMKQRIAEENIMK", "protein stability index": 4.9},
      {"variant": "KKREKQREQAEQMKQRIAEENIMK", "protein stability index": 4.92},
      {"variant": "KKREKQREQQEQMKQRIAEENIMK", "protein stability index": 4.86},
      {"variant": "KKREKQREQLEQMKQRIAEENIMK", "protein stability index": 4.07},
      {"variant": "KKREKQREQTEQMKQRIAEENIMK", "protein stability index": 4.69},
      {"variant": "KKREKQREQKEQMKQRIAEENIMK", "protein stability index": 4.71},
      {"variant": "KKREKQREQHEQMKQRIAEENIMK", "protein stability index": 5.16},
      {"variant": "KKREKQREQIEQMKQRIAEENIMK", "protein stability index": 4.7},
      {"variant": "KKREKQREQYEQMKQRIAEENIMK", "protein stability index": 4.61},
      {"variant": "KKREKQREQWEQMKQRIAEENIMK", "protein stability index": 4.7},
      {"variant": "KKREKQREQVEQMKQRIAEENIMK", "protein stability index": 4.37},
      {"variant": "KKREKQREQCEQMKQRIAEENIMK", "protein stability index": 4.86},
      {"variant": "KKREKQREQPEQMKQRIAEENIMK", "protein stability index": 5.15},
      {"variant": "KKREKQREQDEQMKQRIAEENIMK", "protein stability index": 4.81}
    ]}
  ]
}
